Measured values reported in article PMC10463352, “A signaling complex of adenylate cyclase CyaC of Sinorhizobium meliloti with cAMP and the transcriptional regulators Clr and CycR” (BMC Microbiology, 2023).

B1: His6-CyaC (enzyme, Sinorhizobium meliloti, UniProt Q92MZ6 1-557, looked up)
chain: MTILSASTRKKMHLISGAVLGVFVLLHFSNHALGLVSIDAMETGRRIFTSVWQSIPGTALLYGALLLHFLMALDSLYRRQTFRMPVGEALKIIFGLSLPFLLVPHVVAARVEPLLSGVYPDYPAILRTLWSSSFNTSRQSLALIVVWGHACLGAWFWMRGRAWFPKYETLLYTVALLVPIFALLGFVNGARSLERDYAEHGGYGDRAYSSQAPRVDPNLLDKIRLAFYGGFASLIGGTLVLRALPARGRIRIRYPDGRVAAVSLGFSVLEASRAAGIPHVSVCGGRGRCSTCRVRITQGLEGQPPPEAAELATLTRIGAPENVRLACQFRPVHNVSVVPILDTDSLGIKTQLARQNAGGRERRVAVLFCDLRDFTRIAEHRLPYDTVFLLNRYFEVVGEAVEGSGGVVDKFIGDGALAIFGLKTPLPEACRQALSAAARLSQGIRALNQTFEGELEQPLRLAIGLHAGPAIIGEMGYGQATSLTVVGDTINTASRLEGLAKEHDVELAVSAELVERAGLSFEGHRRLEIGLRGRKATLETWIIGDAAQLSLSLPMQG
notes: His6-CyaC printed as 64.0 kDa; Solubilised in detergent; also called SMc01818 protein; source: E. coli C43(DE3) with pMW3043, extracted from membranes with 1% n-dodecyl-β-D-maltoside, purified (Ni2+-NTA); not shown: His6, N-terminal, kept
B2: CycR-Strep (natural protein, Sinorhizobium meliloti, UniProt Q92MZ5 1-213, looked up)
chain: MVLPRAARTQRRTRIQEEKEEQILEAALEVFSANGFRGSTIDQIADVAGMSKPNLLYYFRTKEAMHRALIDRVLDTWLDPLRAFDAEGNPVAEIRSYIRRKLEMARDFPRESRLFANEVLQGAPRIVDELKGPLKQLVDEKAEVIRSWAKAGKIAKCDPYHLIFAIWSTTQHYADFDVQVRAVLGQENAGEGRFEDAARFLERLFVDGLQVRE
notes: TetR-like transcriptional regulator CycR (TR01819, product of gene smc01819) of Sinorhizobium meliloti; CycR-Strep printed as 28.3 kDa; The purification is told in words only for Clr-Strep; also called Strep-CycR; TR01819; source: E. coli BL21(DE3) with pMW3065, purified; not shown: Strep, C-terminal, kept

Tests used:
[1] = target: CyaC(K410A T484A), fused to the T18 or T25 fragment of Bordetella pertussis adenylate cyclase (Sinorhizobium meliloti); assay: two-hybrid; bacterial adenylate cyclase two-hybrid (BACTH) in E. coli BTH101; T18 and T25 fusions co-expressed from plasmids; grown anaerobically in LB with 20 mM DMSO; β-galactosidase read-out, percent of the Zip-T18/Zip-T25 positive control
[2] = target: B2; assay: SPR; Biacore T200, CM5 chip with StrepTactin; about 200 RU CycR-Strep captured; His6-CyaC injected at 10-5,000 nM; HBS-EP+ (10 mM HEPES pH 7.4, 150 mM NaCl, 3 mM EDTA, 0.05% P20), 25 °C; without cAMP; conditions: both partners purified
[3] = target: B1; assay: SPR; Biacore T200, CM5 chip with StrepTactin; about 200 RU CycR-Strep captured; His6-CyaC injected at 10-5,000 nM; HBS-EP+ (10 mM HEPES pH 7.4, 150 mM NaCl, 3 mM EDTA, 0.05% P20), 25 °C; with 500 µM cAMP; conditions: both partners purified
[4] = target: B1; assay: SPR; Biacore T200, CM5 chip with StrepTactin; about 200 RU CycR-Strep captured; His6-CyaC injected at 10-5,000 nM; HBS-EP+ (10 mM HEPES pH 7.4, 150 mM NaCl, 3 mM EDTA, 0.05% P20), 25 °C; without cAMP; conditions: both partners purified

In the case of “Clr (Smc02175), fused to the T18 or T25 fragment of Bordetella pertussis adenylate cyclase (natural protein)”, the BACTH β-galactosidase activity, percent of the Zip positive control [1] is reported as 108%.

With B1 the “stoichiometry N” value [2] was 1.

B2 showed a Kd [3] of 114 nM and a Kd [4] of 160 nM.
